Target: T1, Human CD123 on stably transfected CHO-K1 cells (CHO-CD123) (human, UniProt P26951 19-378)
T1 construct: whole, on cells; also called IL-3 receptor alpha subunit; cell surface CD123
Assay: flow cytometry on CHO-CD123 cells, 1 µg/ml
Method: Log phase growing monolayer cells were harvested with trypsin/EDTA solution (ATCC) and washed once with culture media and once with PBS containing 1% BSA. 1×10⁶ cells were resuspended in 200 μl staining solution (PBS, 1% BSA, 3% normal goat serum and indicated concentration of 12F1, 12F1scFv-Fc or CD123xCD3 BIf) at room temperature for 1 hour. Human IgG1 (Sigma) was used as a control. Cells were rinsed twice with PBS containing 1% BSA and incubated with PE-conjugated goat anti-human or anti-mouse antibody (Jackson Lab) at room temperature for 1 hour. Cells were thrice washed with PBS containing 1% BSA, resuspended in 500 μl of PBS and analyzed on a Beckman Coulter Cytomic FC 500 flow cytometry.
The abilities of 12F1scFv-Fc and CD123xCD3 BIf to bind cell surface CD123 were examined by flow cytometry using CHO-K1 and CHO-CD123. 12F1 murine monoclonal antibody was used as a positive control. […] The binding affinities were tested in cell-based ELISA with CHO-CD123 cells.

T1 sequence (P26951 19-378): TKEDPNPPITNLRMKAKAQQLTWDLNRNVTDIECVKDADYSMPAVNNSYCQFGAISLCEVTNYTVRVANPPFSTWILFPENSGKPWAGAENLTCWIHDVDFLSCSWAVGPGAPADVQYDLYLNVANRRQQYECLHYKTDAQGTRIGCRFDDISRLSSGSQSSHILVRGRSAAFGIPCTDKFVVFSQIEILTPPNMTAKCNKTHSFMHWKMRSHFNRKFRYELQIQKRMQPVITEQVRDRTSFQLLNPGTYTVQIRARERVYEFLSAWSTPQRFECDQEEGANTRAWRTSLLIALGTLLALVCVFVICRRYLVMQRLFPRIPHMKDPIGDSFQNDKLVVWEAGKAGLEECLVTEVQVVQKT

B1: 12F1 murine anti-human CD123 monoclonal antibody (antibody, V domains shown)
VH: VQLQESGPGLVKPSQSLSLTCSVTDYSITSGYYWNWIRQFPGNKLEWMGYISYDGSNNYNPSLKNRISITRDTSKNQFFLKLSSVTTEDTATYYCSRGEGFYFDSWGQGTTLTVSS
VL: DIMMSQSPSSLAVSVGEKFTMTCKSSQSLFFGSTQKNYLAWYQQKPGQSPKLLIYWASTRESGVPDRFTGSGSGTDFTLAISSVMPEDLAVYYCQQYYNYPWTFGGGTKLEIK
notes: Murine monoclonal antibody from hybridoma
binding result: binds

— patent US20180222996A1 (SCOTT AND WHITE HEALTHCARE SWH, published 2018)
